The values that follow come from paper PMC2903050 (Journal of molecular biology, 2010).

The target of experiment [1] is T1, botulinum neurotoxin serotype A light chain residues 1-448 (Clostridium botulinum, BoNT/A1 …, UniProt P0DPI0). Nature of the experiment: flow cytometry on cells. (Flow cytometry measures light scatter and fluorescence of single cells or particles in a stream.)
Experiment [2] concerns the target truncated BoNT/A Lc containing residues 1-425 (Clostridium botulinum, UniProt P0DPI0). Nature of the experiment: […].
For experiment [3], the target named is T1, botulinum neurotoxin serotype A light …. Nature of the experiment: KinExA. (In general: In KinExA the mixture passes briefly over coated beads that capture the unbound partner.)
Target sequence in this assay (P0DPI0 1-448): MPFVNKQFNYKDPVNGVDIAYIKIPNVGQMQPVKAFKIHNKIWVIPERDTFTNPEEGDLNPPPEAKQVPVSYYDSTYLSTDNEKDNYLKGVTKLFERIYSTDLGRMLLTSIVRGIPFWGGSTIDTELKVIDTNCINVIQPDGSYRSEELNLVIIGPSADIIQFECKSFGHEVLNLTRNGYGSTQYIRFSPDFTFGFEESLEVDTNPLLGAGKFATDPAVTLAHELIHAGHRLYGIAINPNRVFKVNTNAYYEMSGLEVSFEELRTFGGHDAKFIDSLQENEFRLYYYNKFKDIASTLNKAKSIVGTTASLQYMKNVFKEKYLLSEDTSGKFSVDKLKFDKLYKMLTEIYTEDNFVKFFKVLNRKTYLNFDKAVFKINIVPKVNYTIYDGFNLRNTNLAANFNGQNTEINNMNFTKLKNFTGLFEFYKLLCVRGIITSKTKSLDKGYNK

Sequence of truncated BoNT/A Lc containing residues 1-425 (P0DPI0 1-425): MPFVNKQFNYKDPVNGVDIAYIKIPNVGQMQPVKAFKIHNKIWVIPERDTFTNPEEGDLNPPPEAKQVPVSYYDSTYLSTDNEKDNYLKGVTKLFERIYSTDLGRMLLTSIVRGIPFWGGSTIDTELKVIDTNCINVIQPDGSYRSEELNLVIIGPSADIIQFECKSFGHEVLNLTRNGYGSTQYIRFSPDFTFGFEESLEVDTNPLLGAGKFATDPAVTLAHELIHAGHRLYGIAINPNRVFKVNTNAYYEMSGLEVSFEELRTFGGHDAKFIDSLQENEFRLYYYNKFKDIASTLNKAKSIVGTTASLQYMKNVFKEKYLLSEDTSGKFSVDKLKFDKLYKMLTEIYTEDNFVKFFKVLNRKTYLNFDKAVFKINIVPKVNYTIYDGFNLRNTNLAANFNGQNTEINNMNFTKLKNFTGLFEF

B1: Aa1 VHH, yeast displayed (VHH)
VHH: AVQLVDSGGGTLQAGKSLRLSCAISGLAFDGGAMGSEHRLTAGAMGWFRQAPGKDREFVAAISPRTDETYYAESLEGRFSVSRDAAATMVFLQADNVRLDDTASYYCAADEDVTPRVMGVIPHADHWGQGTLVTVSS
By Kd is commonly meant the equilibrium constant for the complex coming apart. A high value points to a looser complex. For the molecule B1, in experiment [1], the Kd is 0.03 nM.

B2: Aa1 VHH, for crystal growing (VHH)
VHH: B1 VHH
In general, stoichiometry N refers to a count of units in the complex or per binding partner. B2: the “stoichiometry N” value in experiment [2] amounted to 1.

B3: Aa1 VHH, purified (VHH)
VHH: B1 VHH
For orientation: koff means a measure of how fast the partners let go of each other. As a reminder, the kon is the second-order rate constant of association. The low end stands for slower complex formation, the high end for faster complex formation. B3: in experiment [3], the Kd is 0.147 nM, the koff was determined as 0.00666 s⁻¹ and the on-rate (kon) amounted to 4.39e+07 M⁻¹ s⁻¹.
